Key:
[1] = target: T1, human Factor XIIa-beta (human, UniProt P00748 354-615, limits assumed); assay: SPR (Biacore), KD against parental 3F7
T1 construct: Bought from Enzyme Research Laboratories; also called FXIIa beta; FXIIa-beta
T1 sequence: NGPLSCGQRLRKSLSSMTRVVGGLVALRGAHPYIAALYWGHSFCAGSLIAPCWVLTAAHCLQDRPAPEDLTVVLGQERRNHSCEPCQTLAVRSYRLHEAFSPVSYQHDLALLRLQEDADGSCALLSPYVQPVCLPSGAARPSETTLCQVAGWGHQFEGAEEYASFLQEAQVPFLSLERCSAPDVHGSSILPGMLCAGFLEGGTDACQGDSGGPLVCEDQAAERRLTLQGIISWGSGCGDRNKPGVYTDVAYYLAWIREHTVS

[2] = target: T2, human FXIIa (human, UniProt P00748 20-615, limits assumed); assay: cell-based or functional assay
T2 sequence: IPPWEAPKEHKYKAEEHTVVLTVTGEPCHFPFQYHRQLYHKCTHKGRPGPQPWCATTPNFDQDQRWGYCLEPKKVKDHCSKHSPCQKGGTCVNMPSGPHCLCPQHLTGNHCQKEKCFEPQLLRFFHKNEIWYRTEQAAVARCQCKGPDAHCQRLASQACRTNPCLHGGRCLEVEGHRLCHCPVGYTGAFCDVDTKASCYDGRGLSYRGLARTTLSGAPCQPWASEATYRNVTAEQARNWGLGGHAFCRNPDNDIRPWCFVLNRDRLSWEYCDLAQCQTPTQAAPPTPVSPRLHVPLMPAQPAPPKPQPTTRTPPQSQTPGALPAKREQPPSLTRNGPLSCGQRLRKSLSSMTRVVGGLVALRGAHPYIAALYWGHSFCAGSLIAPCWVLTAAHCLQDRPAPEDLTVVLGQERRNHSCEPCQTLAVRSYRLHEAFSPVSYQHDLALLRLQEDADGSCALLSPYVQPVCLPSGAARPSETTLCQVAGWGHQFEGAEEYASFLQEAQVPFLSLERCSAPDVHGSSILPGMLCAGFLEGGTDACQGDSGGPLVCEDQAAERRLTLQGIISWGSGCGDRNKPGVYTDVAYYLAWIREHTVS

[3] = target: T1, human Factor XIIa-beta; assay: SPR (Biacore), purified IgG4 captured on anti-human IgG, FXIIa beta 0-40 nM, 1:1 fit, 25 C
[4] = target: T1, human Factor XIIa-beta; assay: SPR (Biacore A100), unpurified IgG4 supernatant captured on anti-human IgG, single FXIIa beta concentration (100 nM), 37 C, 1:1 fit; estimated
Method: Anti-human (Goat anti-human IgG (gamma) mouse adsorbed, Invitrogen, Cat No. H10500) was chemically immobilised on a CM-5 sensor surface using amine coupling chemistry. Culture supernatants were diluted 1/60 with running buffer before capture. Antibodies were captured for 180 seconds representing an average capture of 800 response units (RU). FXIIa beta was then injected at zero and 100 nM for 180 seconds, and dissociated for 180 seconds. All assays were conducted on a Biacore A100 instrument at 37 degrees Celsius and the data fitted to a 1:1 kinetic model.

[5] = target: T3, human Factor XIIa-alpha (human, UniProt P00748 20-615); assay: cell-based or functional assay
T3 sequence: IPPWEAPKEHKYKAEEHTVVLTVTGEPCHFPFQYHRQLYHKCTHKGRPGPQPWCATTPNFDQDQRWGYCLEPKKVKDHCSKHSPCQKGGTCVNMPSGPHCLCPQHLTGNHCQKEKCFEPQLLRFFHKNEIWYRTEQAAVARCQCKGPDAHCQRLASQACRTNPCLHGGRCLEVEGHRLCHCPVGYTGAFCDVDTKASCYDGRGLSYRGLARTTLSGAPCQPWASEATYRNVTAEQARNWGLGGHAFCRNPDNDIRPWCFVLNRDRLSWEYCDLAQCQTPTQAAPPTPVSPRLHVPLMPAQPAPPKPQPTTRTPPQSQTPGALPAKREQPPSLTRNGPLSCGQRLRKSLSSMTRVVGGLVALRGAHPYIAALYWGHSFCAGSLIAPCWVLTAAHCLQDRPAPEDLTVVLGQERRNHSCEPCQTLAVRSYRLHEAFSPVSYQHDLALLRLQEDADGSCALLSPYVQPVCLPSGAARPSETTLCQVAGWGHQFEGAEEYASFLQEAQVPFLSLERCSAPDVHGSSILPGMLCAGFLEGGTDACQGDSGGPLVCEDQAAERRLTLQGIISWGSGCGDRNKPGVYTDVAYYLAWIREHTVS

[6] = target: T2, human FXIIa; assay: cell-based or functional assay; remark: listed apart in the source
[7] = target: T4, recombinant wild-type murine Factor XII (Mu-FXII) with C-terminal 8xHis-tag (mouse, UniProt Q80YC5 20-597); assay: Western blot, non-reducing
T4 construct: cDNA of the entire Mu-FXII protein (GenBank NM_021489) expressed in Freestyle 293 cells, culture supernatant used; also called recombinant murine FXII; wild-type Mu-FXII
T4 sequence: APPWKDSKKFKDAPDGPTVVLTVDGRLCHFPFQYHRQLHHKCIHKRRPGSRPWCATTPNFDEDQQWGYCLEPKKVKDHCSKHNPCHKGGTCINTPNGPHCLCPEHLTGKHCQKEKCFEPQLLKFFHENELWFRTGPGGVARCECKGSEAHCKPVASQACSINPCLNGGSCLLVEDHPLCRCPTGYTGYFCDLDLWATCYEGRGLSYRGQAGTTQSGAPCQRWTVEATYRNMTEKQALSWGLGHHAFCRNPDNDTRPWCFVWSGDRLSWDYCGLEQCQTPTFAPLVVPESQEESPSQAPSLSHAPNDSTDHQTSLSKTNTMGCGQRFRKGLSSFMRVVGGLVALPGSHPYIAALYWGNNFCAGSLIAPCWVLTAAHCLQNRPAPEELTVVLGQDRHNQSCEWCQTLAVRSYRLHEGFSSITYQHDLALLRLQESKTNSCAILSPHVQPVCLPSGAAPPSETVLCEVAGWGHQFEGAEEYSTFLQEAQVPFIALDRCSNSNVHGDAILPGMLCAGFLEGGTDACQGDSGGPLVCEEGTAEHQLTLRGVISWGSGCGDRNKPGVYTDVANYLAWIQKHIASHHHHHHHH
Method: Proteins were then transferred electrophoretically onto nitrocellulose filters and blocked for 1 hour in 5% Milk powder in Tris-buffered saline with 0.05% Tween-20 (TTBS). Filters were then incubated for 1 hour with either 3F7 mAb or an anti-His mAb 3H3 (both at […] in TTBS with 5% Milk powder), washed thoroughly with TTBS, then incubated for a further hour with anti-human IgG-FITC or anti-mouse IgG-FITC, respectively (Millipore, USA; both at 0.25 mg/ml in TTBS with 5% Milk powder). Following further washing of membranes in TTBS, Ab-FITC bound proteins were visualized using a Typhoon variable mode analyzer (GE Healthcare, USA).

[8] = target: T1, human Factor XIIa-beta; assay: SPR (Biacore), purified IgG captured on anti-human IgG, FXIIa beta 0-40 nM, 1:1 fit, 25 C

Fold affinity improvement [1]: 1 fold | IC50 (read off the curve) [2]: ~10 nM | Kd [3]: 8.6 nM | koff [3]: 0.0011 s⁻¹ | kon [3]: 120000 M⁻¹ s⁻¹ | Kd [4]: 33 nM | % Inhibition, ratio FXIIa-alpha:Antibody 1:0.1 [5]: 35.5% | % Inhibition, ratio FXIIa-alpha:Antibody 1:0.1 (second 3F7 block) [5]: 38.3% | % Inhibition, ratio FXIIa-alpha:Antibody 1:0.2 [5]: 62.5% | % Inhibition, ratio FXIIa-alpha:Antibody 1:0.2 (second 3F7 block) [5]: 66.8% | % Inhibition, ratio FXIIa-alpha:Antibody 1:0.5 [5]: 91.9% | % Inhibition, ratio FXIIa-alpha:Antibody 1:0.5 (second 3F7 block) [5]: 91.4% | % Inhibition, ratio FXIIa-alpha:Antibody 1:1 [5]: 97.9% | % Inhibition, ratio FXIIa-alpha:Antibody 1:1 (second 3F7 block) [5]: 96.1% | % Inhibition, ratio FXIIa-alpha:Antibody 1:2 [5]: 100% | % Inhibition, ratio FXIIa-alpha:Antibody 1:2 (second 3F7 block) [5]: 100% | % Inhibition, ratio FXIIa-alpha:Antibody 1:5 [5]: 100% | % Inhibition, ratio FXIIa-alpha:Antibody 1:5 (second 3F7 block) [5]: 100% | % Inhibition, ratio FXIIa-alpha:Antibody 1:10 [5]: 100% | % Inhibition, ratio FXIIa-alpha:Antibody 1:10 (second 3F7 block) [5]: 100% | potency in the FXIIa amidolytic activity assay, against OT-2 [6]: ~2 fold | binding result [7]: binds | Kd [8]: 6.2 nM
B1: monoclonal antibody 3F7 (fully human IgG4/lambda) (antibody, V domains shown)
VH: EVQLLESGGGLVQPGGSLRLSCAASGFTFSKYIMQWVRQAPGKGLEWVSGIRPSGGTTVYADSVKGRFTISRDNSKNTLYLQMNSLRAEDTAVYYCARALPRSGYLISPHYYYYALDVWGQGTTVTVSS
VL: QSELTQPPSASGTPGQRVTISCSGSSSNIGRNYVYWYQQVPGTAPKLLIYSNNQRPSGVPDRFSGSKSGTSASLVISGLRSEDEADYYCAAWDASLRGVFGGGTKLTVLG
notes: also called 3F7 mAb; MAb 3F7

— patent US20200062863A1 (CSL BEHRING, published 2020)
